Molecular target: rhCD39-ECD
Test: BLI
Settings: 30.0 °C

TTX-030
Kd (pH 6.5): approximately 1.5 nM
Kd (pH 7.4): approximately 1.5 nM

— PMC7646477
